The data set concerns the molecule itself. The experiment in a line: crystal structure.

B1: Mycobacterium tuberculosis methyltransferase Rv2067c (tagless recombinant protein used for crystallization) (enzyme)
chain: TDDHPRADIVSRQYHRWLYPHPIADLEAWTTANWEWFDPVHSHRILWPDREYRPDLDILIAGCGTNQAAIFAFTNRAAKVVAIDISRPALDHQQYLKDKHGLANLELHLLPIEELATLGRDFDLVVSTGVLHHLADPRAGMKELAHCLRRDGVVAAMLYGKYGRIGVELLGSVFRDLGLGQDDASIKLAKEAISLLPTYHPLRNYLTKARDLLSDSALVDTFLHGRQRSYTVEECVDLVTSAGLVFQGWFHKAPYYPHDFFVPNSEFYAAVNTLPEVKAWSVMERLETLNATHLFMACRRDRPKEQYTIDFSTVAALDYVPLMRTRCGVSGTDMFWPGWRMAPSPAQLAFLQQVDGRRTIREIAGCVARTGEPSGGSLADLEEFGRKLFQSLWRLDFVAVALPASG
notes: also called MTase
As to B1, the stoichiometry N (as a rule, the number of molecules, sites or subunits per partner or assembly) turned out to be 2.

For the origin of these results see article PMC10739865, “The Mycobacterium tuberculosis methyltransferase Rv2067c manipulates host epigenetic programming to promote its own survival” (Nature Communications, 2023).
